Measured values from article PMC10397247.
One block for each binder: values may come before it.

Tests used:
[1] = target: T1, 4H850-bA; assay: two-hybrid library CCNG1;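 note: natural log of median RNA to DNA barcode read ratio; higher means stronger binding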
T1 chain: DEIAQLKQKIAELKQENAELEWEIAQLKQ

[2] = target: T2, 4H470-bN; assay: two-hybrid library CCNG1;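 note: natural log of median RNA to DNA barcode read ratio; higher means stronger binding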
T2 chain: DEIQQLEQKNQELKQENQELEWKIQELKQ

[3] = target: T3, 4H3907-bN; assay: two-hybrid library CCNG1;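 note: natural log of median RNA to DNA barcode read ratio; higher means stronger binding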
T3 chain: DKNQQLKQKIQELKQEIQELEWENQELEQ

[4] = target: T4, 4H3961-bN; assay: two-hybrid library CCNG1;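 note: natural log of median RNA to DNA barcode read ratio; higher means stronger binding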
T4 chain: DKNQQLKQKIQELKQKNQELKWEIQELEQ

[5] = target: T5, 4H363-bN; assay: two-hybrid library CCNG1;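 note: natural log of median RNA to DNA barcode read ratio; higher means stronger binding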
T5 chain: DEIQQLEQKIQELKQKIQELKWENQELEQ

[6] = target: T6, 4H344-bN; assay: two-hybrid library CCNG1;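 note: natural log of median RNA to DNA barcode read ratio; higher means stronger binding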
T6 chain: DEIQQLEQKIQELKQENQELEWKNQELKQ

[7] = target: T7, 4H2745-bN; assay: two-hybrid library CCNG1
T7 chain: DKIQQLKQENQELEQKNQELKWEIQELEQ

[8] = target: T8, 4H3969-AA; assay: two-hybrid library CCmax; conditions: mean of both orientations
T8 chain: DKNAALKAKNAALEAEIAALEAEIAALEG

[9] = target: T9, 4H2774-AA; assay: two-hybrid library CCmax; conditions: mean of both orientations
T9 chain: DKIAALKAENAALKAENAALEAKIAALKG

[10] = target: T10, 4H249-AA; assay: two-hybrid library CCmax; conditions: mean of both orientations
T10 chain: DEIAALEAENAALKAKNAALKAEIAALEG

[11] = target: T11, 4H3629-AA; assay: two-hybrid library CCmax; conditions: mean of both orientations
T11 chain: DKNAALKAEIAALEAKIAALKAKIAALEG

[12] = target: T12, 4H464-AA; assay: two-hybrid library CCmax; conditions: mean of both orientations
T12 chain: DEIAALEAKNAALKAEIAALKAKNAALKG

[13] = target: T13, 4H2903-AA; assay: two-hybrid library CCmax; conditions: mean of both orientations
T13 chain: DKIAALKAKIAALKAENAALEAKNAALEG

[14] = target: T14, 4H2728-AA; assay: two-hybrid library CCmax; conditions: mean of both orientations
T14 chain: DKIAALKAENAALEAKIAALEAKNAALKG

[15] = target: T15, 4H2699-AA; assay: two-hybrid library CCmax; conditions: mean of both orientations
T15 chain: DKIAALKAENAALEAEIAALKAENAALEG

[16] = target: T16, 4H2621-AA; assay: two-hybrid library CCmax; conditions: mean of both orientations
T16 chain: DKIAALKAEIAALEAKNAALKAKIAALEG

[17] = target: T17, 4H3595-AA; assay: two-hybrid library CCmax; conditions: mean of both orientations
T17 chain: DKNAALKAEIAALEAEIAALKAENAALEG

[18] = target: T18, 4H3782-AA; assay: two-hybrid library CCmax; conditions: mean of both orientations
T18 chain: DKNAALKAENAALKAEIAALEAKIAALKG

[19] = target: T19, 4H1454-AA; assay: two-hybrid library CCmax; conditions: mean of both orientations
T19 chain: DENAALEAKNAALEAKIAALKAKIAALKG

[20] = target: T20, 4H341-AA; assay: two-hybrid library CCmax; conditions: mean of both orientations
T20 chain: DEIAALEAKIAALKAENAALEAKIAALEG

[21] = target: T21, 4H380-AA; assay: two-hybrid library CCmax; conditions: mean of both orientations
T21 chain: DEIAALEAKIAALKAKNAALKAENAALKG

[22] = target: T22, 4H483-AA; assay: two-hybrid library CCmax; conditions: mean of both orientations
T22 chain: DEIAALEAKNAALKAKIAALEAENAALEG

[23] = target: T23, 4H3939-AA; assay: two-hybrid library CCmax; conditions: mean of both orientations
T23 chain: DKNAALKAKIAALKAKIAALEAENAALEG

[24] = target: T24, 4H446-AA; assay: two-hybrid library CCmax; conditions: mean of both orientations
T24 chain: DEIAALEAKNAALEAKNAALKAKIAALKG

[25] = target: T25, 4H2580-AA; assay: two-hybrid library CCmax; conditions: mean of both orientations
T25 chain: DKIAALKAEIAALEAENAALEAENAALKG

[26] = target: T26, 4H63-AA; assay: two-hybrid library CCmax; conditions: mean of both orientations
T26 chain: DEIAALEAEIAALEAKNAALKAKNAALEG

[27] = target: T27, 4H1913-AA; assay: two-hybrid library CCmax; conditions: mean of both orientations
T27 chain: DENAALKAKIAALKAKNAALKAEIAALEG

[28] = target: T28, 4H1558-AA; assay: two-hybrid library CCmax; conditions: mean of both orientations
T28 chain: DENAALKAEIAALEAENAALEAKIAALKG

[29] = target: T29, 4H1360-AA; assay: two-hybrid library CCmax
T29 chain: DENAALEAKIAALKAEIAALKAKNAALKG

[30] = target: T30, 4H3129-AA; assay: two-hybrid library CCmax; conditions: mean of both orientations
T30 chain: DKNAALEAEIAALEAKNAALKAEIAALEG

[31] = target: T31, 4H3049-AA; assay: two-hybrid library CCmax; conditions: mean of both orientations
T31 chain: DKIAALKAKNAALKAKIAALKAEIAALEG

[32] = target: T32, 4H2961-AA; assay: two-hybrid library CCmax; conditions: mean of both orientations
T32 chain: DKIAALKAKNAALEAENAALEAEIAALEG

[33] = target: T33, 4H3414-AA; assay: two-hybrid library CCmax; conditions: mean of both orientations
T33 chain: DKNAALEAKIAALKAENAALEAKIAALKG

[34] = target: T34, 4H342-bN; assay: two-hybrid library CCNG1
T34 chain: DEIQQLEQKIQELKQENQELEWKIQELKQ

[35] = target: T35, 4H496-bN; assay: two-hybrid library CCNG1
T35 chain: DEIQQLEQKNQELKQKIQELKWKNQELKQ

[36] = target: T36, 4H3070-bN; assay: two-hybrid library CCNG1; conditions: mean of both orientations
T36 chain: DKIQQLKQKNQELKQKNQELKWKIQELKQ

[37] = target: T37, 4H3632-bN; assay: two-hybrid library CCNG1
T37 chain: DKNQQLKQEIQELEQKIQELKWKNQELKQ

[38] = target: T38, APC4100-AA; assay: two-hybrid library CCmax; conditions: mean of both orientations
T38 chain: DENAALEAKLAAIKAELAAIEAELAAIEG

[39] = target: T39, APC7524-AA; assay: two-hybrid library CCmax; conditions: mean of both orientations
T39 chain: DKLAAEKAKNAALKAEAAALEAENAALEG

[40] = target: T40, APC9806-AA; assay: two-hybrid library CCmax; conditions: mean of both orientations
T40 chain: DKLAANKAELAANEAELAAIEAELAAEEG

[41] = target: T41, APC9182-AA; assay: two-hybrid library CCmax; conditions: mean of both orientations
T41 chain: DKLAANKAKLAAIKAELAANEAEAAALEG

[42] = target: T42, APC3354-AA; assay: two-hybrid library CCmax; conditions: mean of both orientations
T42 chain: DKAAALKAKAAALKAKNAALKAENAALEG

[43] = target: T43, APC222-AA; assay: two-hybrid library CCmax
T43 chain: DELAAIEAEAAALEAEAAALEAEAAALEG

[44] = target: T44, APC9141-AA; assay: two-hybrid library CCmax; conditions: mean of both orientations
T44 chain: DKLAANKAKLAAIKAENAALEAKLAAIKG

[45] = target: T45, APC3265-AA; assay: two-hybrid library CCmax; conditions: mean of both orientations
T45 chain: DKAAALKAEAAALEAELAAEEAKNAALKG

[46] = target: T46, APC2556-AA; assay: two-hybrid library CCmax; conditions: mean of both orientations
T46 chain: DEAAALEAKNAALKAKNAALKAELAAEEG

[47] = target: T47, APC3323-AA; assay: two-hybrid library CCmax; conditions: mean of both orientations
T47 chain: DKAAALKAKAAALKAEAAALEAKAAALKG

[48] = target: T48, APC2474-AA; assay: two-hybrid library CCmax
T48 chain: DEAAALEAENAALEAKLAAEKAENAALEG

[49] = target: T49, APC4336-AA; assay: two-hybrid library CCmax; conditions: mean of both orientations
T49 chain: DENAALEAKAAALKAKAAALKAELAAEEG

[50] = target: T50, APC3881-AA; assay: two-hybrid library CCmax; conditions: mean of both orientations
T50 chain: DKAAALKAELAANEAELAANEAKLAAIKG

[51] = target: T51, APC542-AA; assay: two-hybrid library CCmax
T51 chain: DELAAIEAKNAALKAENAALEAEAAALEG

[52] = target: T52, APC5531-AA; assay: two-hybrid library CCmax
T52 chain: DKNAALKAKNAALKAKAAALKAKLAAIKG

[53] = target: T53, APC8401-AA; assay: two-hybrid library CCmax; conditions: mean of both orientations
T53 chain: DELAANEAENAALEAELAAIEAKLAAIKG

[54] = target: T54, APC2375-AA; assay: two-hybrid library CCmax; conditions: mean of both orientations
T54 chain: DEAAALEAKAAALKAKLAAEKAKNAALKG

[55] = target: T55, APC8516-AA; assay: two-hybrid library CCmax
T55 chain: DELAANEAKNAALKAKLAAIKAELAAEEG

[56] = target: T56, APC2981-AA; assay: two-hybrid library CCmax; conditions: mean of both orientations
T56 chain: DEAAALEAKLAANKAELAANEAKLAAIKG

[57] = target: T57, APC2257-AA; assay: two-hybrid library CCmax; conditions: mean of both orientations
T57 chain: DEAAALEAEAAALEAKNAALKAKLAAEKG

[58] = target: T58, APC6088-AA; assay: two-hybrid library CCmax; conditions: mean of both orientations
T58 chain: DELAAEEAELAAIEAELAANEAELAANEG

[59] = target: T59, APC5009-AA; assay: two-hybrid library CCmax; conditions: mean of both orientations
T59 chain: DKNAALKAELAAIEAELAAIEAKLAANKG

[60] = target: T60, APC2724-AA; assay: two-hybrid library CCmax; conditions: mean of both orientations
T60 chain: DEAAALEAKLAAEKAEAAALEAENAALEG

[61] = target: T61, APC9291-AA; assay: two-hybrid library CCmax; conditions: mean of both orientations
T61 chain: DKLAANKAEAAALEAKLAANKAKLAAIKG

[62] = target: T62, APC2543-AA; assay: two-hybrid library CCmax; conditions: mean of both orientations
T62 chain: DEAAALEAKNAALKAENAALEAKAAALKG

[63] = target: T63, APC2811-AA; assay: two-hybrid library CCmax; conditions: mean of both orientations
T63 chain: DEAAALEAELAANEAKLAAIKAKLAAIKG

interaction score [1]: -0.544
interaction score [2]: 1.07
interaction score [3]: -1.56
interaction score [4]: -0.46
interaction score [5]: -0.693
interaction score [6]: -0.786
interaction score [7]: -0.754
Binder: DKIQQLKQENQELEQKNQELKWEIQELEQ [4H2745-bN]

interaction score [8]: 0.163
interaction score [9]: -1.2
interaction score [10]: -1.76
interaction score [11]: 0.958
interaction score [12]: -1.69
interaction score [13]: 0.0597
interaction score [14]: -1.69
interaction score [15]: 0.416
interaction score [16]: -1.11
interaction score [17]: 2
interaction score [18]: -0.0635
interaction score [19]: -1.08
interaction score [20]: 0.0278
interaction score [21]: -1.11
interaction score [22]: -1.58
interaction score [23]: 0.656
interaction score [24]: -1.69
interaction score [25]: 1.2
interaction score [26]: 0.265
interaction score [27]: -1.61
interaction score [28]: -0.811
interaction score [29]: -0.121
interaction score [30]: -1.34
interaction score [31]: -0.108
interaction score [32]: -1.52
interaction score [33]: -1.25
Binder: DENAALEAKIAALKAEIAALKAKNAALKG [4H1360-AA]

interaction score [34]: 0.751
interaction score [35]: -1.31
interaction score [36]: -1.41
interaction score [37]: -1.38
Binder: DKIQQLKQKNQELKQKNQELKWKIQELKQ [4H3070-bN]

interaction score [38]: -1.75
interaction score [39]: -2.39
interaction score [40]: -1.68
interaction score [41]: -1.69
interaction score [42]: -1.41
interaction score [43]: -2.62
interaction score [44]: -1.74
interaction score [45]: -1.62
interaction score [46]: -2.32
interaction score [47]: -0.292
interaction score [48]: -1.83
interaction score [49]: -1.82
interaction score [50]: -1.61
interaction score [51]: -1.23
interaction score [52]: -1.91
interaction score [53]: -1.94
interaction score [54]: -1.53
interaction score [55]: -1.79
interaction score [56]: -1.93
interaction score [57]: -1.71
interaction score [58]: -1.62
interaction score [59]: -2.08
interaction score [60]: -2.15
interaction score [61]: -1.82
interaction score [62]: -1.8
interaction score [63]: -1.59
Binder: DELAAIEAEAAALEAEAAALEAEAAALEG [APC222-AA]
